Measurements as given in the supplement of paper PMC9732359.
± gives the uncertainty stated by the source.

Assay: protein stability index of a GFP-peptide fusion (yeast GPS) (PSI 1-4); higher = more stable; sorted into four equal gates, so the index is relative within each strain
How it was run: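 Plasmids in a pooled yeast library fused tiled 17-residue yeast protein peptides downstream of GFP and also expressed Cherry. Mid-log cultures grown without leucine were sorted into four equal gates by GFP/Cherry fluorescence ratio. Each gate's plasmids were PCR-amplified and Illumina-sequenced, and reads were matched to strains by barcodes. The protein stability index is derived by multiplying each gate's read frequency by its gate number and summing the results.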

Sequence | protein stability index (doa10∆) | protein stability index (pdr5∆) | protein stability index (san1∆) | protein stability index (ubr1∆)
GANPRVLSTFTAEFGKI [RPN10] | 2.14 ± 0.11 | 2.08 ± 0.1 | 2.12 ± 0.2 | 2.18 ± 0.073
IFNDILAHVDQIVDIRN [YJL039C/NUP192] | 2.83 ± 0.1 | 2.64 ± 0.18 | 2.97 ± 0.082 | 2.9 ± 0.076
EIILDFLQDKVQIKDVN [CSI1] | 3.12 ± 0.086 | 2.83 ± 0.055 | 2.36 ± 0.076 | 3.17 ± 0.051
SSRPNVNTTRRFQYSDD [YMR129W/POM152] | 2.93 ± 0.14 | 3.16 ± 0.11 | 2.4 ± 0.16 | 2.69 ± 0.088
VSIRQNQYKLVFYQVTP [RPL22B] | 1.95 ± 0.087 | 1.69 ± 0.051 | 2.15 ± 0.06 | 1.88 ± 0.064
VNLDNTAVGKAAVVKTS [RPT5] | 3.16 ± 0.064 | 3.12 ± 0.057 | 3.28 ± 0.041 | 3.05 ± 0.039
VQPPLDKFPYKKLELPK [SWP82] | 2.79 ± 0.074 | 2.11 ± 0.055 | 2.73 ± 0.061 | 2.93 ± 0.055
IKTKQMSLKKCQEEVST [SMC2] | 2.48 ± 0.098 | 3.02 ± 0.095 | 3.03 ± 0.088 | 3.27 ± 0.059
DSYIALYEKDIVPSMTH [RET1] | 2.5 ± 0.066 | 2.51 ± 0.07 | 2.46 ± 0.075 | 2.65 ± 0.067
YIGEFEYIDDHRSGKIV [RPS22A] | 2.9 ± 0.057 | 3.13 ± 0.061 | 2.99 ± 0.051 | 3.01 ± 0.043
KGSVAAKTFLEKRWNDE [PRE8] | 2.38 ± 0.18 | 1.28 ± 0.17 |  | 
RNARATRAAKIAPRPLD [RPL13A] |  |  | 3.33 ± 0.1 | 
CKQVHDKLTSIQDTLRT [MED7] | 2.68 ± 0.074 | 2.85 ± 0.048 | 2.67 ± 0.044 | 2.81 ± 0.053
GISSAYIKSATLYSVKS [SNU114] | 1.39 ± 0.12 | 1.43 ± 0.11 | 1.67 ± 0.26 | 1.75 ± 0.17
IEDLWQFLYEKHYKNIP [RPC82] | 2.23 ± 0.088 | 1.53 ± 0.078 | 1.62 ± 0.19 | 2.1 ± 0.071
NNRRRSRKRGGENVFLK [SIR3] | 3.6 ± 0.11 | 3.23 ± 0.084 | 3.07 ± 0.086 | 3.33 ± 0.048
MSKVMKPSNGKGSRKSS [SNF12] | 2.92 ± 0.091 | 3.27 ± 0.11 | 3.02 ± 0.11 | 3.232 ± 0.029
SLYAYCHSKLRGQQVEN [GRR1] | 2.51 ± 0.1 | 2.52 ± 0.092 | 2.54 ± 0.1 | 2.6 ± 0.097
LLHHVSELDSNDFFIIY [YJL039C/NUP192] | 1.7 ± 0.088 | 1.74 ± 0.088 | 1.61 ± 0.14 | 2.02 ± 0.078
NLPGNITVVLGVNGYIW [RRP4] | 2.01 ± 0.15 | 2.64 ± 0.093 | 1.67 ± 0.12 | 2.5 ± 0.066
REVGTKFTTVLAKILAR [ECM29] | 1.39 ± 0.086 | 1.52 ± 0.06 | 1.88 ± 0.097 | 1.44 ± 0.05
MLKPNIIFQQLLFWTDP [YCG1] | 2.42 ± 0.099 | 2.28 ± 0.076 | 1.21 ± 0.093 | 1.68 ± 0.12
IMLLQLELGSCFSQENI [SIN4] | 1.64 ± 0.046 | 1.87 ± 0.047 | 2.52 ± 0.067 | 2.27 ± 0.062
ALVKPETQFKLSRPYKA [CDC53] | 2.41 ± 0.068 | 2.64 ± 0.059 | 2.59 ± 0.059 | 2.34 ± 0.063
IQRGRILPTDGSAEFNV [RPB7] | 2.8 ± 0.14 | 3.05 ± 0.086 | 3.03 ± 0.081 | 2.79 ± 0.075
GFTASVSNQENAGTDIV [MED1] | 2.95 ± 0.14 | 2.91 ± 0.13 | 2.64 ± 0.16 | 3.07 ± 0.072
VLFAAYKVEHPFFARFK [RPB11] | 2.71 ± 0.089 | 1.87 ± 0.05 | 2.18 ± 0.067 | 2.27 ± 0.1

Sequence | protein stability index (doa10∆) | protein stability index (pdr5∆) | protein stability index (san1∆) | protein stability index (ubr1∆)
KPETLSIGKNPFNKPNI [SWI3] | 2.85 ± 0.044 | 2.9 ± 0.041 | 2.75 ± 0.033 | 2.99 ± 0.03
DQKFGVPVRSFKGHSHI [ASC1] | 3.11 ± 0.092 | 3.19 ± 0.064 | 2.99 ± 0.07 | 3.25 ± 0.058
LSNCLANARDFGEWAGM [BRR2] | 2.35 ± 0.089 | 2.41 ± 0.095 | 2.28 ± 0.17 | 2.45 ± 0.07
QLAIRNDDELNKLLGNV [HTA1] | 3.31 ± 0.14 | 3.38 ± 0.071 | 3.23 ± 0.064 | 3.43 ± 0.078
GKLVESEDSMNVQLRDV [SMD3] | 3.26 ± 0.14 | 3.32 ± 0.1 | 3.33 ± 0.065 | 3.26 ± 0.041
EKSAYKFFHNGMIYNKL [FAS2] | 2.92 ± 0.086 | 2.81 ± 0.07 | 2.88 ± 0.071 | 2.83 ± 0.064
EIKKWTAVAFWSWDIAV [HRT1] | 1.23 ± 0.076 | 1.7 ± 0.073 | 1.65 ± 0.11 | 1.36 ± 0.044
PDMMVDSFTMPNISHSN [SNF2] | 3.28 ± 0.11 | 2.84 ± 0.098 | 2.72 ± 0.087 | 3.18 ± 0.093
NAQLSCITKQDGFKIYD [PUP2] | 3.04 ± 0.16 | 3.17 ± 0.12 | 3.12 ± 0.098 | 3.07 ± 0.1
SKNPLSLTEATKTNVDN [YLR335W/NUP2] | 3.01 ± 0.065 | 3.01 ± 0.069 | 3.28 ± 0.11 | 3.31 ± 0.092
LTKAAIVQIDATPFRQW [RPS8A] | 2.132 ± 0.016 | 2.453 ± 0.017 | 2.347 ± 0.021 | 2.362 ± 0.014
KICRGRMNTIITHPGKM [SIR4] | 3.36 ± 0.28 |  | 3.23 ± 0.16 | 
MRQQSKELQQLQKQILT [SMC1] | 3.32 ± 0.13 | 3.05 ± 0.074 | 3.29 ± 0.039 | 3.17 ± 0.049
LAGVLYESRNVAKRRFE [RRP6] | 2.76 ± 0.066 | 3.12 ± 0.061 | 2.93 ± 0.077 | 3.12 ± 0.047
SKGYPIQFLTIGAGVPS [FAS1] | 1.4 ± 0.032 | 1.64 ± 0.045 | 1.34 ± 0.061 | 1.34 ± 0.036
IVGLATLIVNTDVEKSD [SRP21] |  |  |  | 3.69 ± 0.26
MRNFSKQNQDSKHNERN [YDL088C/ASM4] | 3.01 ± 0.11 | 3.32 ± 0.14 | 2.46 ± 0.09 | 3.34 ± 0.093
SLEHELKRSTELLETVS [YIL149C/MLP2] | 2 ± 0.057 | 2.21 ± 0.054 | 2.25 ± 0.071 | 2.17 ± 0.037
YLSDLKQFFQMTPLLVN [PCI8] | 1.69 ± 0.043 | 1.74 ± 0.044 | 1.51 ± 0.066 | 1.51 ± 0.026
VTYSRVSKKVDVRRLKK [BRN1] |  | 1.32 ± 0.14 |  | 3.23 ± 0.15
PKNVPTSKWLNSITSGG [YDL116W/NUP84] | 2.35 ± 0.072 | 2.56 ± 0.068 | 2.23 ± 0.14 | 2.6 ± 0.064
DLALPPPPPPPPGYEIE [PRP8] | 3.08 ± 0.088 | 2.98 ± 0.11 | 2.54 ± 0.14 | 2.95 ± 0.073
GSCTGKFGYILCVLDYD [RPB7] | 2.3 ± 0.084 | 2.54 ± 0.061 | 2.38 ± 0.067 | 2.31 ± 0.055
VLKESIVNICDIQEEQV [PUP1] | 3.15 ± 0.22 | 3.04 ± 0.22 | 3.33 ± 0.14 | 
VRVRTTKIPQIGDKFAS [RPB2] | 2.55 ± 0.068 | 2.68 ± 0.072 | 3.13 ± 0.064 | 2.66 ± 0.035
QQQSADHDDSTDDADDH [NSL1] | 2.91 ± 0.059 | 2.91 ± 0.064 | 2.77 ± 0.057 | 3.01 ± 0.037
